Test results as given in patent publication US20090215693A1, “METHODS FOR INCREASING HYALURONIC ACID LEVELS AND IMPROVING MOISTURE RETENTION IN TISSUE” (priority 2008, published 2009).

Tested on: Fibroblasts
Assay: Hyaluronic acid production by cultured fibroblasts (ELISA of culture medium)
Assay type: cell-based
Details: fibroblast culture; even at the lowest concentrations tested
Method: Fibroblasts were seeded into individual wells of a 12-well plate in 1.0 ml of Fibroblast Growth Media (FGM) and incubated overnight at 37±2° C. and 5±1% CO2. On the following day the media was removed via aspiration to eliminate non-adherent cells and replaced with 1.0 ml of fresh FGM. Cells were grown until confluent, with a media change every 48 to 72 hours. Upon reaching confluency the cells were treated for 24 hours with DMEM supplemented with 1.5% FBS to eliminate growth factors from the normal culture media. After this 24-hour wash-out period the cells were treated with the indicated test materials (i.e., milk-derived products containing lactoferrin) at the specified concentrations dissolved in FGM with 1.5% FBS. Dibutyrl cAMP (DBcAMP) at 0.1 mM was used as a positive control. Untreated cells (negative control) received FGM with 1.5% FBS. The cells were incubated for 48 hours and at the end of the incubation period cell culture medium was collected and either stored frozen (−75° C.) or assayed immediately. All testing was done in triplicate.
A series of hyaluronic acid standards from 50 ng/ml to 3,200 ng/ml was prepared. […] After incubation, 50 μl of stop solution was added to each well and the absorbance was measured at 405 nm using a plate reader. Hyaluronic acid production was expressed as ng/ml and results are shown in Table 1 and the graph of FIG. 1.

B1: bovine milk-derived lactoferrin: multi-functional protein found in mammalian milk, primarily in the whey fraction (protein, UniProt P24627 20-708, looked up)
Lactotransferrin: APRKNVRWCTISQPEWFKCRRWQWRMKKLGAPSITCVRRAFALECIRAIAEKKADAVTLDGGMVFEAGRDPYKLRPVAAEIYGTKESPQTHYYAVAVVKKGSNFQLDQLQGRKSCHTGLGRSAGWIIPMGILRPYLSWTESLEPLQGAVAKFFSASCVPCIDRQAYPNLCQLCKGEGENQCACSSREPYFGYSGAFKCLQDGAGDVAFVKETTVFENLPEKADRDQYELLCLNNSRAPVDAFKECHLAQVPSHAVVARSVDGKEDLIWKLLSKAQEKFGKNKSRSFQLFGSPPGQRDLLFKDSALGFLRIPSKVDSALYLGSRYLTTLKNLRETAEEVKARYTRVVWCAVGPEEQKKCQQWSQQSGQNVTCATASTTDDCIVLVLKGEADALNLDGGYIYTAGKCGLVPVLAENRKSSKHSSLDCVLRPTEGYLAVAVVKKANEGLTWNSLKDKKSCHTAVDRTAGWNIPMGLIVNQTGSCAFDEFFSQSCAPGADPKSRLCALCAGDDQGLDKCVPNSKEKYYGYTGAFRCLAEDVGDVAFVKNDTVWENTNGESTADWAKNLNREDFRLLCLDGTRKPVTEAQSCHLAVAPNHAVVSRSDRAAHVKQVLLHQQALFGKNGKNCPDKFCLFKSETKNLLFNDNTECLAKLGGRPTYEEYLGTEYVTAIANLKKCSTSPLLEACAFLTR
hyaluronic acid levels compared with untreated fibroblasts: detectable and significant increase
